Where “and” joins values, the source holds several entries; their conditions need not be identical. Equal entries are not always repeated.
Experiments:
[1] = biological target: GFP^2-Pflu-H2-RLuc2 fusion protein
[2] = biological target: GFP^2-Pflu-H1-RLuc2 fusion protein
[3] = biological target: GFP^2-Pflu-H3-RLuc2 fusion protein
[4] = biological target: GFP^2-Pflu-H4-RLuc2 fusion protein
[5] = biological target: GFP^2-plas1-RLuc2 fusion protein (BRET^2 plasmin sensor)
[6] = biological target: GFP^2-Pflu3-RLuc2 fusion protein (Pflu sensor 3)

| Protein | Plasmin response (%), BRET^2, 1 nM Bovine plasmin in UHT milk [1] [%] | Plasmin response (%), BRET^2, 1 nM Bovine plasmin in UHT milk [2] [%] | Plasmin response (%), BRET^2, 1 nM Bovine plasmin in UHT milk [3] [%] | Plasmin response (%), BRET^2, 1 nM Bovine plasmin in UHT milk [4] [%] | Linear response, BRET^2, raw milk, one-step pre-treatment protocol [5] | Linear response, BRET^2, raw milk, one-step pre-treatment with low power sonication [5] | Linear range (10%-90% BRET^2 response), 50% full fat UHT milk [6] |
| --- | --- | --- | --- | --- | --- | --- | --- |
| bovine plasmin (Sigma) (protein) RIYLLECKTGNGQTYRGTTAETKSGVTCQKWSATSPHVPKFSPEKFPLAGLEENYCRNPDNDENGPWCYTTDPDKRYDYCDIPECEDKCMHCSGENYEGKIAKTMSGRDCQAWDSQSPHAHGYIPSKFPNKNLKMNYCRNPDGEPRPWCFTTDPQKRWEFCDIPRCTTPPPSSGPKYQCLKGTGKNYGGTVAVTESGHTCQRWSEQTPHKHNRTPENFPCKNLEENYCRNPNGEKAPWCYTTNSEVRWEYCTIPSCESSPLSTERMDVPVPPEQTPVPQDCYHGNGQSYRGTSSTTITGRKCQSWSSMTPHRHLKTPENYPNAGLTMNYCRNPDADKSPWCYTTDPRVRWEFCNLKKCSETPEQVPAAPQAPGVENPPEADCMIGTGKSYRGKKATTVAGVPCQEWAAQEPHQHSIFTPETNPQSGLERNYCRNPDGDVNGPWCYTMNPRKPFDYCDVPQCESSFDCGKPKVEPKKCSGRIVGGCVSKPHSWPWQVSLRRSSRHFCGGTLISPKWVLTAAHCLDNILALSFYKVILGAHNEKVREQSVQEIPVSRLFREPSQADIALLKLSRPAIITKEVIPACLPPPNYMVAARTECYITGWGETQGTFGEGLLKEAHLPVIENKVCNRNEYLDGRVKPTELCAGHLIGGTDSCQGDSGGPLVCFEKDKYILQGVTSWGLGCARPNKPGVYVRVSPYVPWIEETMRRN | 7.9 | 4.9 | 0.9 | 6.3 |  |  |  |
| human plasmin (Sigma) (protein) KVYLSECKTGNGKNYRGTMSKTKNGITCQKWSSTSPHRPRFSPATHPSEGLEENYCRNPDNDPQGPWCYTTDPEKRYDYCDILECEEECMHCSGENYDGKISKTMSGLECQAWDSQSPHAHGYIPSKFPNKNLKKNYCRNPDRELRPWCFTTDPNKRWELCDIPRCTTPPPSSGPTYQCLKGTGENYRGNVAVTVSGHTCQHWSAQTPHTHNRTPENFPCKNLDENYCRNPDGKRAPWCHTTNSQVRWEYCKIPSCDSSPVSTEQLAPTAPPELTPVVQDCYHGDGQSYRGTSSTTTTGKKCQSWSSMTPHRHQKTPENYPNAGLTMNYCRNPDADKGPWCFTTDPSVRWEYCNLKKCSGTEASVVAPPPVVLLPDVETPSEEDCMFGNGKGYRGKRATTVTGTPCQDWAAQEPHRHSIFTPETNPRAGLEKNYCRNPDGDVGGPWCYTTNPRKLYDYCDVPQCAAPSFDCGKPQVEPKKCPGRVVGGCVAHPHSWPWQVSLRTRFGMHFCGGTLISPEWVLTAAHCLEKSPRPSSYKVILGAHQEVNLEPHVQEIEVSRLFLEPTRKDIALLKLSSPAVITDKVIPACLPSPNYVVADRTECFITGWGETQGTFGAGLLKEAQLPVIENKVCNRYEFLNGRVQSTELCAGHLAGGTDSCQGDSGGPLVCFEKDKYILQGVTSWGLGCARPNKPGVYVRVSRFVTWIEGVMRNN |  |  |  |  | between 1.6 nM (90%) and 128 nM (10%) plasmin | linear between 5.5 nM (90%) and 107 nM (10%) | 452 nM and 3620 nM |

From patent publication US20190345535
